Laboratory results reported in PMC9482650, “Quantitative fragmentomics allow affinity mapping of interactomes” (Nature Communications, 2022).

Experiments:
Test in all cases: holdup assay
Parameters in all cases: key: below the threshold = too weak to quantify, mostly under pKd 3.1 to 4
NOS1, P29475 = target: NOS1, P29475
GRASP, Q7Z6J2 = target: GRASP, Q7Z6J2
IL16_4, Q14005 = target: IL16_4, Q14005
DFNB31_1, Q9P202 = target: T1, DFNB31_1, Q9P202
T1 sequence (Q9P202 135-233, limits assumed, looked up): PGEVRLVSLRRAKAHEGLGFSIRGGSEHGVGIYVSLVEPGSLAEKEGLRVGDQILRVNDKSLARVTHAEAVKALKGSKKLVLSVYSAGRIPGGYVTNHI

IL16_3, Q14005 = target: IL16_3, Q14005
Chain of IL16_3, Q14005 (Q14005 1107-1207): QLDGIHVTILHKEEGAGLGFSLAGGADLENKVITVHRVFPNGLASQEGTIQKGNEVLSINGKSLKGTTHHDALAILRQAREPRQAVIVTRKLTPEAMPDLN

FRMPD3, Q5JV73 = target: FRMPD3, Q5JV73
Chain of FRMPD3, Q5JV73 (Q5JV73 12-100): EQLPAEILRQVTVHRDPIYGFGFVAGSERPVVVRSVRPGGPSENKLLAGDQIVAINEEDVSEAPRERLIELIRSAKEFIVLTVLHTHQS

LNX1_2, Q8TBB1 = target: LNX1_2, Q8TBB1
Chain of LNX1_2, Q8TBB1 (Q8TBB1 371-470): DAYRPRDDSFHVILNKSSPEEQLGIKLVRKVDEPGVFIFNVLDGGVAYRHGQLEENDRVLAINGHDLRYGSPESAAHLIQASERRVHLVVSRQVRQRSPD

TIAM2, Q8IVF5 = target: T2, TIAM2, Q8IVF5
T2 sequence (Q8IVF5 885-986, limits assumed, looked up): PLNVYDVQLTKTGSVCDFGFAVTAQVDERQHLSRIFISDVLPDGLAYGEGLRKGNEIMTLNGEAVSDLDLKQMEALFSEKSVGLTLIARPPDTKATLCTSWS

GRID2IP_2, A4D2P6 = target: GRID2IP_2, A4D2P6
Chain of GRID2IP_2, A4D2P6 (A4D2P6 272-370): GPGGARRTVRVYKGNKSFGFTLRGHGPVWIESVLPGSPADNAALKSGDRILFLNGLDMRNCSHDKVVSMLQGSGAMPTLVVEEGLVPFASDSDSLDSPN

APBA3_1, O96018 = target: T3, APBA3_1, O96018
T3 sequence (O96018 389-490, limits assumed, looked up): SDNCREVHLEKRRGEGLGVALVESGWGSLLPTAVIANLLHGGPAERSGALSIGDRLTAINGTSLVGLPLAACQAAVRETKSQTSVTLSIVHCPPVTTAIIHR

GRIP1_4, Q9Y3R0 = target: T4, GRIP1_4, Q9Y3R0
T4 sequence (Q9Y3R0 467-571, limits assumed, looked up): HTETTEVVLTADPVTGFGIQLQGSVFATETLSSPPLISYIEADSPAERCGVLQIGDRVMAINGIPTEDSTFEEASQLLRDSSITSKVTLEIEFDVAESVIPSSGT

DFNB31_3, Q9P202 = target: T5, DFNB31_3, Q9P202
T5 sequence (Q9P202 811-907, limits assumed, looked up): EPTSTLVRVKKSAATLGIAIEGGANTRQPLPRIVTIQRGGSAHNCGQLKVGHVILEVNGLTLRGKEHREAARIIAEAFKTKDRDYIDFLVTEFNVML

DLG5_1, Q8TDM6 = target: DLG5_1, Q8TDM6
Chain of DLG5_1, Q8TDM6 (Q8TDM6 617-713): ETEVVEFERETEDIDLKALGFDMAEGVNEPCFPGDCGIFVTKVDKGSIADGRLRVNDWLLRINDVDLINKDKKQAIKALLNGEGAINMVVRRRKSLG

MPDZ_12, O75970 = target: T6, MPDZ_12, O75970
T6 sequence (O75970 1857-1958, limits assumed, looked up): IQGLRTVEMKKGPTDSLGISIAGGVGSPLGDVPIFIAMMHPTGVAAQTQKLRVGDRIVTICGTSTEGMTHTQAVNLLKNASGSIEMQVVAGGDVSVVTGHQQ

PICK1, Q9NRD5 = target: PICK1, Q9NRD5
Chain of PICK1, Q9NRD5 (Q9NRD5 17-115): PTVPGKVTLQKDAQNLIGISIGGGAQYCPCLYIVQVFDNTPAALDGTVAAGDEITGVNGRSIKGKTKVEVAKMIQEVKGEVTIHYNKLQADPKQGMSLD

MAGI2_2, Q86UL8 = target: MAGI2_2, Q86UL8
Chain of MAGI2_2, Q86UL8 (Q86UL8 410-522): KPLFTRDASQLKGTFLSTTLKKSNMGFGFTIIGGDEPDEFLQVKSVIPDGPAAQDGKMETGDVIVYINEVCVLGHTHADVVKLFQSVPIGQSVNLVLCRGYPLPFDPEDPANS

Inadl_9, Q8NI35 = target: Inadl_9, Q8NI35
Chain of Inadl_9, Q8NI35 (Q8NI35 1530-1615): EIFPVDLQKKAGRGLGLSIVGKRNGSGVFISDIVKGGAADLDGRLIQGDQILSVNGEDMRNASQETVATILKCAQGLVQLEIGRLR

TJP1_3, Q07157 = target: TJP1_3, Q07157
Chain of TJP1_3, Q07157 (Q07157 416-512): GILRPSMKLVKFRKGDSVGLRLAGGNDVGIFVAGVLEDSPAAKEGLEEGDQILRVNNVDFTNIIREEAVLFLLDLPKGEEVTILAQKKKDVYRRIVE

RADIL, Q96JH8 = target: T7, RADIL, Q96JH8
T7 sequence (Q96JH8 971-1071, limits assumed, looked up): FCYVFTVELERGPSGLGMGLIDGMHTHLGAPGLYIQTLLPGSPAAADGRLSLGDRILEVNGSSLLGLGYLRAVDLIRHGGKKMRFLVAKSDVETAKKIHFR

PDZRN3_1, Q9UPQ7 = target: T8, PDZRN3_1, Q9UPQ7
T8 sequence (Q9UPQ7 244-349, limits assumed, looked up): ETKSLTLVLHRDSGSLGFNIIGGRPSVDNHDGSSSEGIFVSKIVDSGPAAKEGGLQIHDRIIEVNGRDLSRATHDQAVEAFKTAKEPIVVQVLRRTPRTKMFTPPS

DLG3_2, Q92796 = target: T9, DLG3_2, Q92796
T9 sequence (Q92796 221-321, limits assumed, looked up): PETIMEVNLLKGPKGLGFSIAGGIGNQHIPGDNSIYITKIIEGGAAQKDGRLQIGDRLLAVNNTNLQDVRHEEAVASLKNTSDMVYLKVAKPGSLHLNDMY

HTRA3, P83110 = target: T10, HTRA3, P83110
T10 sequence (P83110 354-453, limits assumed, looked up): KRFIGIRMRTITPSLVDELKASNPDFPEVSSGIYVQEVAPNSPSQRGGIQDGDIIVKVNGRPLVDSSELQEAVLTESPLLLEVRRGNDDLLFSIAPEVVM

GRIP2_6, Q9C0E4 = target: GRIP2_6, Q9C0E4
Chain of GRIP2_6, Q9C0E4 (Q9C0E4 648-740): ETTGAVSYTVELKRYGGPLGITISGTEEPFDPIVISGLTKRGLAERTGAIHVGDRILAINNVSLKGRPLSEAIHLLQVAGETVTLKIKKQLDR

MPP2, Q14168 = target: T11, MPP2, Q14168
T11 sequence (Q14168 180-250, limits assumed, looked up): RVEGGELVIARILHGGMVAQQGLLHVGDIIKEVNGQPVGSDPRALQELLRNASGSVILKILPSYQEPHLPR

GORASP2, Q9H8Y8 = target: GORASP2, Q9H8Y8
GRIP2_4, Q9C0E4 = target: GRIP2_4, Q9C0E4
Chain of GRIP2_4, Q9C0E4 (Q9C0E4 446-548): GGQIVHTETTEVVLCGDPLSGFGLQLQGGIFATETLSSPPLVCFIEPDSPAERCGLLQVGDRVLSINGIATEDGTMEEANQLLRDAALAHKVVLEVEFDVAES

[1] = plain residues with an end cap or a label only (N-terminal biotin on a linker: ado-ado)
[2] = plain residues with an end cap or a label only (N-terminal biotin on a linker: ttds)
[3] = plain residues with an end cap or a label only (N-terminal biotin on a linker: gsgsgs; C-terminal amide)
[4] = plain residues with an end cap or a label only (N-terminal biotin on a linker: none)

Chain of IL16_4, Q14005 (Q14005 1229-1329): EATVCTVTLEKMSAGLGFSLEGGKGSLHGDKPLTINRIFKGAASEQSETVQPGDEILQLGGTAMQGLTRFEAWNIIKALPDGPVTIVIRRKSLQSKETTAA
Chain of NOS1, P29475 (P29475 9-101): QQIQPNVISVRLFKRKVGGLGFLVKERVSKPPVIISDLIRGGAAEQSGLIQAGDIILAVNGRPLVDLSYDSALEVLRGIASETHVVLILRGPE
Chain of GRASP, Q7Z6J2 (Q7Z6J2 96-193): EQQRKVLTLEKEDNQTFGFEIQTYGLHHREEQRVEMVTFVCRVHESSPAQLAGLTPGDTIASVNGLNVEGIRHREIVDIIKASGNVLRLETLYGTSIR

In the case of LHLHGTGIQV [EPHA7, Q15375], the pKd (NOS1, P29475; [1]) is reported as 4.24, the pKd (GRASP, Q7Z6J2; [1]) is reported as “below the threshold” and the pKd (IL16_4, Q14005; [1]) is reported as “below the threshold”. For the same binder, the pKd (DFNB31_1, Q9P202; [1]) was 3.53, the pKd (IL16_3, Q14005; [1]) was “below the threshold” and the pKd (FRMPD3, Q5JV73; [1]) was 3.5. The pKd (LNX1_2, Q8TBB1; [1]) was 4.37, the pKd (TIAM2, Q8IVF5; [1]) was “below the threshold” and the pKd (GRID2IP_2, A4D2P6; [1]) was “below the threshold”. The pKd (APBA3_1, O96018; [1]) was “below the threshold”, the pKd (GRIP1_4, Q9Y3R0; [1]) was “below the threshold” and the pKd (DFNB31_3, Q9P202; [1]) was 3.99. For the same binder, the pKd (DLG5_1, Q8TDM6; [1]) was “below the threshold”, the pKd (MPDZ_12, O75970; [1]) was 3.55 and the pKd (PICK1, Q9NRD5; [1]) was 3.56. For the same binder, the pKd (MAGI2_2, Q86UL8; [1]) was 3.51, the pKd (Inadl_9, Q8NI35; [1]) was 4.37 and the pKd (TJP1_3, Q07157; [1]) was “below the threshold”. For the same binder, the pKd (RADIL, Q96JH8; [1]) was 4.58, the pKd (PDZRN3_1, Q9UPQ7; [1]) was “below the threshold” and the pKd (DLG3_2, Q92796; [1]) was “below the threshold”. For the same binder, the pKd (HTRA3, P83110; [1]) was 3.58, the pKd (GRIP2_6, Q9C0E4; [1]) was 3.81 and the pKd (MPP2, Q14168; [1]) was “below the threshold”. The pKd (GORASP2, Q9H8Y8; [1]) was 4.46 and the pKd (GRIP2_4, Q9C0E4; [1]) was “below the threshold”.

HRTCYLVTQL [ASIC3, Q9UHC3] gave a pKd (NOS1, P29475; [2]) of 3.75, a pKd (GRASP, Q7Z6J2; [2]) of 4.77 and a pKd (IL16_4, Q14005; [2]) of 3.21. For the same binder, the pKd (DFNB31_1, Q9P202; [2]) was 3.67, the pKd (IL16_3, Q14005; [2]) was “below the threshold” and the pKd (FRMPD3, Q5JV73; [2]) was 3.53. The pKd (LNX1_2, Q8TBB1; [2]) was 3.46, the pKd (TIAM2, Q8IVF5; [2]) was 3.3 and the pKd (GRID2IP_2, A4D2P6; [2]) was 4.56. For the same binder, the pKd (APBA3_1, O96018; [2]) was “below the threshold”, the pKd (GRIP1_4, Q9Y3R0; [2]) was “below the threshold” and the pKd (DFNB31_3, Q9P202; [2]) was 4.25. For the same binder, the pKd (DLG5_1, Q8TDM6; [2]) was “below the threshold”, the pKd (MPDZ_12, O75970; [2]) was 3.34 and the pKd (PICK1, Q9NRD5; [2]) was 3.63. The pKd (MAGI2_2, Q86UL8; [2]) was 4.14, the pKd (Inadl_9, Q8NI35; [2]) was “below the threshold” and the pKd (TJP1_3, Q07157; [2]) was “below the threshold”. The pKd (RADIL, Q96JH8; [2]) was 4.43, the pKd (PDZRN3_1, Q9UPQ7; [2]) was 4.08 and the pKd (DLG3_2, Q92796; [2]) was 3.97. For the same binder, the pKd (HTRA3, P83110; [2]) was 3.43, the pKd (GRIP2_6, Q9C0E4; [2]) was 3.22 and the pKd (MPP2, Q14168; [2]) was “below the threshold”. The pKd (GORASP2, Q9H8Y8; [2]) was 4.55 and the pKd (GRIP2_4, Q9C0E4; [2]) was “below the threshold”.

In the case of ELIQDTSTSFSTTREW [ARAP3_int, Q8WWN8], the pKd (NOS1, P29475; [3]) is reported as “below the threshold”, the pKd (GRASP, Q7Z6J2; [3]) is reported as “below the threshold” and the pKd (IL16_4, Q14005; [3]) is reported as “below the threshold”. The pKd (DFNB31_1, Q9P202; [3]) was “below the threshold”, the pKd (IL16_3, Q14005; [3]) was “below the threshold” and the pKd (FRMPD3, Q5JV73; [3]) was “below the threshold”. The pKd (LNX1_2, Q8TBB1; [3]) was “below the threshold”, the pKd (TIAM2, Q8IVF5; [3]) was 3.97 and the pKd (GRID2IP_2, A4D2P6; [3]) was 3.89. For the same binder, the pKd (APBA3_1, O96018; [3]) was “below the threshold”, the pKd (GRIP1_4, Q9Y3R0; [3]) was “below the threshold” and the pKd (DFNB31_3, Q9P202; [3]) was 3.83. For the same binder, the pKd (DLG5_1, Q8TDM6; [3]) was “below the threshold”, the pKd (MPDZ_12, O75970; [3]) was “below the threshold” and the pKd (PICK1, Q9NRD5; [3]) was “below the threshold”. For the same binder, the pKd (MAGI2_2, Q86UL8; [3]) was “below the threshold”, the pKd (Inadl_9, Q8NI35; [3]) was “below the threshold” and the pKd (TJP1_3, Q07157; [3]) was “below the threshold”. For the same binder, the pKd (RADIL, Q96JH8; [3]) was “below the threshold”, the pKd (PDZRN3_1, Q9UPQ7; [3]) was “below the threshold” and the pKd (DLG3_2, Q92796; [3]) was 4.16. The pKd (HTRA3, P83110; [3]) was “below the threshold”, the pKd (GRIP2_6, Q9C0E4; [3]) was “below the threshold” and the pKd (MPP2, Q14168; [3]) was “below the threshold”. For the same binder, the pKd (GORASP2, Q9H8Y8; [3]) was “below the threshold” and the pKd (GRIP2_4, Q9C0E4; [3]) was “below the threshold”.

For DSKPPLPPDEWV [MERS-E, K9N5R3], the pKd (NOS1, P29475; [4]) was 3.99, the pKd (GRASP, Q7Z6J2; [4]) was “below the threshold” and the pKd (IL16_4, Q14005; [4]) was “below the threshold”. For the same binder, the pKd (DFNB31_1, Q9P202; [4]) was 3.61, the pKd (IL16_3, Q14005; [4]) was “below the threshold” and the pKd (FRMPD3, Q5JV73; [4]) was 4.17. The pKd (LNX1_2, Q8TBB1; [4]) was “below the threshold”, the pKd (TIAM2, Q8IVF5; [4]) was “below the threshold” and the pKd (GRID2IP_2, A4D2P6; [4]) was 3.53. For the same binder, the pKd (APBA3_1, O96018; [4]) was 3.65, the pKd (GRIP1_4, Q9Y3R0; [4]) was “below the threshold” and the pKd (DFNB31_3, Q9P202; [4]) was “below the threshold”. For the same binder, the pKd (DLG5_1, Q8TDM6; [4]) was “below the threshold”, the pKd (MPDZ_12, O75970; [4]) was “below the threshold” and the pKd (PICK1, Q9NRD5; [4]) was “below the threshold”. For the same binder, the pKd (MAGI2_2, Q86UL8; [4]) was “below the threshold”, the pKd (Inadl_9, Q8NI35; [4]) was 3.57 and the pKd (TJP1_3, Q07157; [4]) was 3.56. The pKd (RADIL, Q96JH8; [4]) was 4.06, the pKd (PDZRN3_1, Q9UPQ7; [4]) was “below the threshold” and the pKd (DLG3_2, Q92796; [4]) was 3.96. For the same binder, the pKd (HTRA3, P83110; [4]) was 5.66, the pKd (GRIP2_6, Q9C0E4; [4]) was “below the threshold” and the pKd (MPP2, Q14168; [4]) was “below the threshold”. For the same binder, the pKd (GORASP2, Q9H8Y8; [4]) was 4.57 and the pKd (GRIP2_4, Q9C0E4; [4]) was “below the threshold”.
